These results are taken from US20220177587A1, “METHODS AND USES OF VARIANT CD80 FUSION PROTEINS AND RELATED CONSTRUCTS” (Alpine Immune Sciences, Inc., priority 2018, published 2022).

Substitutions are numbered along the chain they refer to. Names and notes keep the numbering of the source.

Sequences and labels used below:
B1: variant CD80 IgV-Fc (inert) H18Y/E35D/M47V/V68M/A71G (Fc fusion)
chain: VIHVTKEVKEVATLSCGYNVSVEELAQTRIYWQKDKKMVLTMMSGDVNIWPEYKNRTIFDITNNLSIMILGLRPSDEGTYECVVLKYEKDAFKREHLAEVTLSVKAD
B2: variant CD80 IgV-Fc (inert) H18V/A26K/E35D/M47L/V68M/A71G (Fc fusion)
chain: B1 chain with Y18V, A26K, V47L
B3: variant CD80 IgV-Fc (inert) H18C/A26P/E35D/M47L/V68M/A71G (Fc fusion)
chain: B1 chain with Y18C, A26P, V47L
B4: variant CD80 IgV-Fc (inert) H18T/A26N/E35D/M47L/V68M/A71G (Fc fusion)
chain: B1 chain with Y18T, A26N, V47L
B5: variant CD80 IgV-Fc (inert) H18I/A26P/E35D/M47V/V68M/A71G (Fc fusion)
chain: B1 chain with Y18I, A26P
B6: CD80 A12V/S15F/Y31H/M38L/T41G/M43L/D90N/T130A/P137L/N149D/N152T ECD-Fc (Fc fusion)
chain: VIHVTKEVKEVVTLFCGHNVSVEELAQTRIHWQKEKKLVLGMLSGDMNIWPEYKNRTIFDITNNLSIVILALRPSDEGTYECVVLKYEKNAFKREHLAEVTLSVKADFPTPSISDFEIPTSNIRRIICSASGGFPELHLSWLENGEELDAITTTVSQDPETELYAVSSKLDFNMTTNHSFMCLIKYGHLRVNQTFNWNTTKQEHFPDN
B7: CD80 I67T/L70Q/A91G/I118V/T120S ECD-Fc (Fc fusion)
chain: VIHVTKEVKEVATLSCGHNVSVEELAQTRIYWQKEKKMVLTMMSGDMNIWPEYKNRTIFDITNNLSTVIQALRPSDEGTYECVVLKYEKDGFKREHLAEVTLSVKADFPTPSISDFEVPSSNIRRIICSTSGGFPEPHLSWLENGEELNAINTTVSQDPETELYAVSSKLDFNMTTNHSFMCLIKYGHLRVNQTFHWNTTKQEHFPDN
B8: CD80 K36G/K37Q/M38I/L40M ECD-Fc (Fc fusion)
chain: B7 chain with K36G, K37Q, M38I, L40M, T67I, Q70L, G91A, V118I, S120T, H196N
B9: CD80 A91G/F92L/F108L/I118V/T120S ECD-Fc (Fc fusion)
chain: B7 chain with T67I, Q70L, F92L, F108L, H196N
B10: CD80 V22A/L70Q/S121P ECD-Fc (Fc fusion)
chain: B7 chain with V22A, T67I, G91A, V118I, S120T, S121P, H196N
B11: CD80 I67F/L70R/E88G/A91G/I118V/T120S/T130A ECD-Fc (Fc fusion)
chain: B7 chain with T67F, Q70R, E88G, T130A, H196N
B12: CD80 L70Q/A91G/T110A/I118V/T120S/T130A ECD-Fc (Fc fusion)
chain: B7 chain with T67I, T110A, T130A, H196N
B13: CD80 E24G/R29D/Y31L/Q33H/K36G/M38I/T41A/M43R/M47T/F59L/E81V/L85R/K89N/A91T/F92P/K93V/R94L/H96R/N149S/C182S ECD-Fc (Fc fusion)
chain: VIHVTKEVKEVATLSCGHNVSVEGLAQTDILWHKEGKIVLAMRSGDTNIWPEYKNRTILDITNNLSIVILALRPSDEGTYVCVVRKYENDTPVLERLAEVTLSVKADFPTPSISDFEIPTSNIRRIICSTSGGFPEPHLSWLENGEELSAINTTVSQDPETELYAVSSKLDFNMTTNHSFMSLIKYGHLRVNQTFNWNTTKQEHFPDN
B14: CD80 R29V/M43Q/E81R/L85I/K89R/D90L/A91E/F92N/K93Q/R94G ECD-Fc (Fc fusion)
chain: VIHVTKEVKEVATLSCGHNVSVEELAQTVIYWQKEKKMVLTMQSGDMNIWPEYKNRTIFDITNNLSIVILALRPSDEGTYRCVVIKYERLENQGEHLAEVTLSVKADFPTPSISDFEIPTSNIRRIICSTSGGFPEPHLSWLENGEELNAINTTVSQDPETELYAVSSKLDFNMTTNHSFMCLIKYGHLRVNQTFNWNTTKQEHFPDN

The first test addresses CD28 (human) (UniProt P10747). Kind of test: flow cytometry, Jurkat cells (CD28); MFI over CD80 WT IgV-Fc.
With B1, the Fold change to WT CD80 came to 31.6 fold.
On the same count and under the same terms, next, B2: 35.7 fold; B3: 18.7 fold.
B4 returned a Fold change to WT CD80 of 13.4 fold.
For the molecule B5, the Fold change to WT CD80 came out at 25.2 fold.

In another test the target is human PD-L1 (human) (UniProt Q9NZQ7). Kind of test: flow cytometry, CHO cells stably expressing PD-L1. On the technique in general: In flow cytometry, cells or beads pass a laser one at a time.
Sequence of human PD-L1 (human) (Q9NZQ7 19-290): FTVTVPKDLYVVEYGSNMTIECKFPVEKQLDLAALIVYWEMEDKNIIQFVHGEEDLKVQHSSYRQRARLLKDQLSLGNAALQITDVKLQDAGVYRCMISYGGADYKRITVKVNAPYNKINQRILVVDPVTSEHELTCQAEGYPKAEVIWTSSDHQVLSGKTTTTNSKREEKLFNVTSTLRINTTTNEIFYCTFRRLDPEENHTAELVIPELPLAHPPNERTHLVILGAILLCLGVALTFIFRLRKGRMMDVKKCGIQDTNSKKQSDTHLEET
Regarding B1, the MFI at 33.3 nM was found to be 64900 MFI.
Regarding B2, the MFI at 33.3 nM amounted to 67300 MFI.
With B3, the MFI at 33.3 nM turned out to be 67000 MFI.
With B4, the MFI at 33.3 nM is 68500 MFI.
Molecule B5 returned an MFI at 33.3 nM of 64900 MFI.

The next test has as its target human CTLA-4 (human) (UniProt P16410). Kind of test: flow cytometry, Expi293F cells transfected with CTLA-4.
As for B6, the MFI was determined as 6 MFI and the parental ratio is 0.03.
The like results for B7 were, in that order, 160 MFI and 0.77.
B8: the MFI is 1400 MFI and the parental ratio was determined as 0.03.
On the same counts, the results for B9 are 128 MFI and 0.61.
The like results for B10 were, in that order, 7 MFI and 0.04.
On the same counts, the results for B11 are 6 MFI and 0.03.
Take B12: the MFI worked out at 14 MFI and the parental ratio is 0.07.
On the same counts, the results for B13 are 1020 MFI and 0.02.
On to B14, for which the MFI was found to be 996 MFI and the parental ratio amounted to 0.02.

The next test addresses CD28 (human) (UniProt P10747). Kind of test: flow cytometry, Jurkat cells (CD28).
With B1, the MFI at 33.3 nM was 3230 MFI.
Molecule B2 came in with an MFI at 33.3 nM of 3640 MFI.
Still for that read-out and setting: next, B3: 1910 MFI.
The same measure, in the same setting: then B4, with 1370 MFI; and B5, with 2570 MFI.

For a further test, the target named is human CTLA-4 (human) (UniProt P16410). The experiment in a line: flow cytometry, CHO/CTLA4 cells; MFI over CD80 WT IgV-Fc.
Sequence of human CTLA-4 (human) (P16410 36-223): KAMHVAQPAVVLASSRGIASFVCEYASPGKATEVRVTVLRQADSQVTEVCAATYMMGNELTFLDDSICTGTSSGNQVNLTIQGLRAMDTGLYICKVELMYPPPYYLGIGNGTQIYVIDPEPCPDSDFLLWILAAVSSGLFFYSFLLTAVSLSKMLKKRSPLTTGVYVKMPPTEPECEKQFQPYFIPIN
B1 registered a Fold change to WT CD80 of 17.1 fold.
The same measure, in the same setting: then B2, with 16.6 fold; and B3, with 16.9 fold; and B4, with 15.1 fold.
Same read-out and setting: next, B5: 15.8 fold.

Another test has the same target. Kind of test: flow cytometry, CHO cells stably expressing CTLA4.
B1 had an MFI at 33.3 nM of 23600 MFI.
On the same count and under the same terms, then B2, with 22900 MFI; and B3, with 23400 MFI.
The same measure, in the same setting: next, B4: 20900 MFI; B5: 21900 MFI.

The target of another test is human PD-L1 (human) (UniProt Q9NZQ7). The experiment in a line: flow cytometry, Expi293F cells transfected with PD-L1.
For B6, the MFI was 5 MFI and the parental ratio was 0.08.
As for B7, the MFI is 5 MFI and the parental ratio came out at 0.08.
On the same counts, the results for B8 are 959 MFI and 0.05.
With B9, the MFI was found to be 16 MFI and the parental ratio was 0.11.
On the same counts, the results for B10 are 5 MFI and 0.07.
Consider B11, for which the MFI amounted to 6 MFI and the parental ratio is 0.08.
On to B12, for which the MFI was determined as 5 MFI and the parental ratio worked out at 0.07.
As for B13, the MFI stood at 1120 MFI and the parental ratio turned out to be 0.06.
The like results for B14 were, in that order, 1580 MFI and 0.09.

The next test shares this target. Kind of test: flow cytometry, CHO/PD-L1 cells; MFI over CD80 WT IgV-Fc.
Molecule B1 displayed a Fold change to WT CD80 of 393 fold.
The same measure, in the same setting: next, B2: 408 fold; B3: 406 fold.
On the same count and under the same terms, next, B4: 415 fold; B5: 393 fold.

The target of another test is CD28 (human) (UniProt P10747). The experiment in a line: flow cytometry, Expi293F cells transfected with CD28.
Consider B6, for which the MFI is 6 MFI and the parental ratio came out at 0.06.
With B7, the MFI amounted to 98 MFI and the parental ratio was determined as 1.03.
Consider B8, for which the MFI was 1170 MFI and the parental ratio was found to be 0.09.
Take B9: the MFI is 50 MFI and the parental ratio stood at 0.53.
On the same counts, the results for B10 are 5 MFI and 0.06.
As for B11, the MFI was determined as 5 MFI and the parental ratio came out at 0.05.
The like results for B12 were, in that order, 8 MFI and 0.09.
On the same counts, the results for B13 are 1070 MFI and 0.08.
The like results for B14 were, in that order, 1030 MFI and 0.08.
